Four molecules from patent US20120149104A1 (ALLERGAN, published 2012) can be followed below.

Assay [1] has as its target T1, SNAP-25 peptide comprising amino acids 134-197 of SEQ ID NO: 5 (human). The assay can be described thus: SPR (BIAcore 3000), peptide on CM5 chip, antibody in flow; value in parentheses, second determination not explained. (In general: SPR reads the build-up and loss of mass on a sensor chip optically.)
The target in assay [2] is T1, SNAP-25 peptide comprising amino acids …. The assay can be described thus: SPR (BIAcore 3000), peptide on CM5 chip, antibody in flow.
The target is the same in assay [3]. Nature of the assay: SPR (BIAcore 3000), peptide on CM5 chip, antibody in flow; value in parentheses, second determination not explained; value in parentheses (second set for 2E2A6; KD 0.405 nM, used in paragraph 239).
For assay [4] the target is unchanged. The assay can be described thus: SPR (BIAcore 3000), peptide on CM5 chip, antibody in flow. This is another data set of the same source.
In assay [5] the target is SNAP-25 peptide comprising amino acids 134-206 of SEQ ID NO: 5 (human). Described as above.
Assay [6] addresses T2, SNAP-25206 uncleaved substrate (in PC12 cells) (UniProt P60881 1-206).
T2 construct: domain: SNAP-25206 uncleaved substrate; also called uncleaved SNAP-25
Nature of the assay: cell-based assay, Western blot of PC12 cells +/- GFP-BoNT/A-LC, ascites 1:100. For orientation: A western blot detects proteins with antibodies after separation by electrophoresis.

In general, Kd refers to a measure of binding affinity in units of concentration. In general, koff refers to the rate constant with which the complex falls apart. The term kon denotes the second-order rate constant of association.

T2 sequence (P60881 whole entry): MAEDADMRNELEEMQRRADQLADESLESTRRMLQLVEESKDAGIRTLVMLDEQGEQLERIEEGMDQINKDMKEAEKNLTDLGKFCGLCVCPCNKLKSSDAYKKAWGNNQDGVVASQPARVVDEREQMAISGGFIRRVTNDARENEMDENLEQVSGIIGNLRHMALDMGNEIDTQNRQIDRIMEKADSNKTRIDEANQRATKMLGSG

B1: α-SNAP-25 monoclonal antibody 2E2A6 (antibody, V domains shown)
VH: QVQLQQSDAELVKPGASVKISCRASGYTFTDHSIHWVKQQPGQGLEWIGYIFPGNGNIEYNDKFKGKATLTADKSSGTAYMQLNSLTSEDSAVYFCKRMGYWGQGTSVTVSS
VL: DVLMTQTPLTLSVTIGQPASISCKSSQSLLYTNGKTYLTWLFQRPGQSPKRLIYLVSELDSGVPDRFSGSGSGTDFTLEITRVEAEDLGVYYCLQSAHFPFTFGSGTKLEIKR
With B1, the equilibrium dissociation constant (Kd) in assay [1] was found to be 0.405 nM; in assay [4], 0.09 nM. The koff was 6.74e-05 s⁻¹ in assay [1] and 0.000153 s⁻¹ in assay [4]. In addition, in assay [2], the “fold difference of the off rate/dissociation constant against MC-6050 and MC-6053” value was ≥ 1 fold. For the same molecule, the kon in assay [3] is 166000 M⁻¹ s⁻¹; in assay [4], 1.7e+06 M⁻¹ s⁻¹. The binding result in assay [5] is “no binding (tested: 10 µM)”; in assay [6] it was “no binding”.

B2: α-SNAP-25 monoclonal antibody 3C1A5 (antibody, V domains shown)
VH: QVKLQESGAELVKPGASVKISCKASGYTFTDHSIHWVKQKPGQGLEWIGYLFPGNGNFEYNEKFKGKATLTADKSSSTVYMYLNSLTSEDSAVYFCKRMGYWGQGTTVTVSS
VL: DVVMTQTPLTLSVTIGQPASISCKSSQSLLNTNGKTYLTWLIQRPGQSPQRLIYLVSKLDSGVPDRFSGSGSGTDFTLKISRVEAEDLGVYYCLQSSHFPFTFGSGTKLEIKR
In assay [4], B2 came in with a Kd of 1.33 nM, a koff of 0.000288 s⁻¹ and a kon of 217000 M⁻¹ s⁻¹. The binding result in assay [5] is “no binding (tested: 100 nM)”. In addition, the binding result in assay [6] is reported as “no binding”.

B3: α-SNAP-25 monoclonal antibody 1D3B8 (antibody, V domains shown)
VH: QVKLQESGAELVKPGASVKISCKASGYIFTDHALHWVRQKPEQGLEWIGYIFPGNGNIEYNEKFKGKATLTADKSSSTAYMQLNSLTSGDSAMYFCKKMDYWGQGTTVTVSS
VL: DVLMTQTPLSLPVSLGDQASISCRSSQSIVHSNGNTYLEWYLQKPGQSPKLLIYKVSNRFSGVPDRFSGSGSGTDFTLKISRVEAEDLGVYYCFQGSHVPPTFGAGTKLELKR
On to B3, for which the “fold difference of the equilibrium disassociation constant against MC-6050 and MC-6053” value in assay [2] was ~10 fold. In assay [4], this molecule showed a Kd of 0.05 nM, a koff of 5.78e-05 s⁻¹ and a kon of 1.06e+06 M⁻¹ s⁻¹. In addition, the binding result in assay [5] was “no binding (tested: 125 nM)”. Besides, in assay [6], the binding result was “no binding”.

B4: α-SNAP-25 monoclonal antibody 2C9B10 (antibody, V domains shown)
VH: QVKLQESGAELVKPGASVKISCKASGYTFTDHSIHWVKQKPGQGLEWIGYLFPGNGNFEYNEKFKGKATLTADKSSSTAYMHLNSLTSEDSAVYFCKKMDYWGQGTTVTVSS
VL: DIQMTQSPASLSASVGETVTITCRTTENIYSYFVWSQQRQGKSPQLRVYNAKSLAEGVPSSFNVSVSGTQFSLKINSLQPEDFGTYHCQHHYGTPYTFGGGTRLEIRR
Consider B4, for which, in assay [4], the Kd was 27.1 nM, the dissociation rate constant (koff) was 0.000311 s⁻¹ and the kon was determined as 11500 M⁻¹ s⁻¹. The binding result in assay [6] is “no binding”.
